Several values for one entry are separate records, joined by “and”; a condition that tells them apart may be missing. Equal entries are not always repeated. Numbered stars: 1 amine (or outer) side, 2 acyl side, 3 side chain; on linkers, the order of the positions; unused ones are H or OH. Side chains are listed from the residue outwards. Ends that are not written are not given here. * marks the point of attachment. γGlu = O=C(O)[C@H](CCC(=O)[*:2])N[*:1]; Palmitoyl = CCCCCCCCCCCCCCCC(=O)*
B1: g736 (peptide)
peptide: HGQGTFTSDYSKYLDSK([γGlu-Palmitoyl])RAADFVAWLVAGG-NH2
modifications: N-terminus assumed
SMILES: CCCCCCCCCCCCCCCC(=O)N[C@@H](CCC(=O)NCCCC[C@H](NC(=O)[C@H](CO)NC(=O)[C@H](CC(=O)O)NC(=O)[C@H](CC(C)C)NC(=O)[C@H](Cc1ccc(O)cc1)NC(=O)[C@H](CCCCN)NC(=O)[C@H](CO)NC(=O)[C@H](Cc1ccc(O)cc1)NC(=O)[C@H](CC(=O)O)NC(=O)[C@H](CO)NC(=O)[C@@H](NC(=O)[C@H](Cc1ccccc1)NC(=O)[C@@H](NC(=O)CNC(=O)[C@H](CCC(N)=O)NC(=O)CNC(=O)[C@@H](N)Cc1c[nH]cn1)[C@@H](C)O)[C@@H](C)O)C(=O)N[C@@H](CCCNC(=N)N)C(=O)N[C@@H](C)C(=O)N[C@@H](C)C(=O)N[C@@H](CC(=O)O)C(=O)N[C@@H](Cc1ccccc1)C(=O)N[C@H](C(=O)N[C@@H](C)C(=O)N[C@@H](Cc1c[nH]c2ccccc12)C(=O)N[C@@H](CC(C)C)C(=O)N[C@H](C(=O)N[C@@H](C)C(=O)NCC(=O)NCC(N)=O)C(C)C)C(C)C)C(=O)O
B2: g720 (peptide)
peptide: HGQGTFTSDYSRYLDSK([γGlu-Palmitoyl])RARDFVEWLVAGG-NH2
modifications: N-terminus assumed
SMILES: CCCCCCCCCCCCCCCC(=O)N[C@@H](CCC(=O)NCCCC[C@H](NC(=O)[C@H](CO)NC(=O)[C@H](CC(=O)O)NC(=O)[C@H](CC(C)C)NC(=O)[C@H](Cc1ccc(O)cc1)NC(=O)[C@H](CCCNC(=N)N)NC(=O)[C@H](CO)NC(=O)[C@H](Cc1ccc(O)cc1)NC(=O)[C@H](CC(=O)O)NC(=O)[C@H](CO)NC(=O)[C@@H](NC(=O)[C@H](Cc1ccccc1)NC(=O)[C@@H](NC(=O)CNC(=O)[C@H](CCC(N)=O)NC(=O)CNC(=O)[C@@H](N)Cc1c[nH]cn1)[C@@H](C)O)[C@@H](C)O)C(=O)N[C@@H](CCCNC(=N)N)C(=O)N[C@@H](C)C(=O)N[C@@H](CCCNC(=N)N)C(=O)N[C@@H](CC(=O)O)C(=O)N[C@@H](Cc1ccccc1)C(=O)N[C@H](C(=O)N[C@@H](CCC(=O)O)C(=O)N[C@@H](Cc1c[nH]c2ccccc12)C(=O)N[C@@H](CC(C)C)C(=O)N[C@H](C(=O)N[C@@H](C)C(=O)NCC(=O)NCC(N)=O)C(C)C)C(C)C)C(=O)O
B3: g737 (peptide)
peptide: HGEGTFTSDYSKYLDSK([γGlu-Palmitoyl])RAADFVAWLVAGG-NH2
modifications: N-terminus assumed
SMILES: CCCCCCCCCCCCCCCC(=O)N[C@@H](CCC(=O)NCCCC[C@H](NC(=O)[C@H](CO)NC(=O)[C@H](CC(=O)O)NC(=O)[C@H](CC(C)C)NC(=O)[C@H](Cc1ccc(O)cc1)NC(=O)[C@H](CCCCN)NC(=O)[C@H](CO)NC(=O)[C@H](Cc1ccc(O)cc1)NC(=O)[C@H](CC(=O)O)NC(=O)[C@H](CO)NC(=O)[C@@H](NC(=O)[C@H](Cc1ccccc1)NC(=O)[C@@H](NC(=O)CNC(=O)[C@H](CCC(=O)O)NC(=O)CNC(=O)[C@@H](N)Cc1c[nH]cn1)[C@@H](C)O)[C@@H](C)O)C(=O)N[C@@H](CCCNC(=N)N)C(=O)N[C@@H](C)C(=O)N[C@@H](C)C(=O)N[C@@H](CC(=O)O)C(=O)N[C@@H](Cc1ccccc1)C(=O)N[C@H](C(=O)N[C@@H](C)C(=O)N[C@@H](Cc1c[nH]c2ccccc12)C(=O)N[C@@H](CC(C)C)C(=O)N[C@H](C(=O)N[C@@H](C)C(=O)NCC(=O)NCC(N)=O)C(C)C)C(C)C)C(=O)O

The binders below were run against human glucagon receptor (human, UniProt P47871 26-477) (assay: cell-based or functional assay).
Chain of human glucagon receptor (P47871 26-477): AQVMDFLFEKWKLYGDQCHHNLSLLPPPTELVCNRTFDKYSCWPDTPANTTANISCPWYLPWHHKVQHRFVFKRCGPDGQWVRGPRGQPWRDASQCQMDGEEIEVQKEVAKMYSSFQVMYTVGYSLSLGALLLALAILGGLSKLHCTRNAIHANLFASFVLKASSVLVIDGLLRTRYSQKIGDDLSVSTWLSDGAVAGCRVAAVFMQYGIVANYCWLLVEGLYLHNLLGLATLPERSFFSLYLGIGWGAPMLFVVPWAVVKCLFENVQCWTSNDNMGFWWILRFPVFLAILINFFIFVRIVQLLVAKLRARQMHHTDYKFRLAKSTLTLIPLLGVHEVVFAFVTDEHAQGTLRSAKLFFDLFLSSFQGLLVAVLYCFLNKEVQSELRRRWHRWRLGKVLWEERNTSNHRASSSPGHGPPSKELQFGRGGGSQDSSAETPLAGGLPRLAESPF

B1 was tested, and the cAMP EC50 (assay 1) was 0.919 nM and 0.92 nM.

Point of comparison: B3, cAMP EC50 (assay 1) 734 nM. Against it:
- B2 — 2100-fold lower, 0.352 nM

These binders were tested against human GLP-1 receptor (human, UniProt P43220 24-463) (assay: cell-based or functional assay).
Chain of human GLP-1 receptor (P43220 24-463): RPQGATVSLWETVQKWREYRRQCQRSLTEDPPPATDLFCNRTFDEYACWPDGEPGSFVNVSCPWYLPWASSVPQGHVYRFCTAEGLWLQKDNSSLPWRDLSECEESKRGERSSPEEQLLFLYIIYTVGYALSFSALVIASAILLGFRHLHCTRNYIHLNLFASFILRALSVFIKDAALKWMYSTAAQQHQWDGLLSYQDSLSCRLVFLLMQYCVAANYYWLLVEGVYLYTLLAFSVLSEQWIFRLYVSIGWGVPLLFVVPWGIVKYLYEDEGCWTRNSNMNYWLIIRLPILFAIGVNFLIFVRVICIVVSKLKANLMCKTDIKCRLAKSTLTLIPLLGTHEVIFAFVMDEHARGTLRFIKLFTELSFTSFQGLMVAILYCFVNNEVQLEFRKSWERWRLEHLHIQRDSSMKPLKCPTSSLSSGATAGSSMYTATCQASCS

Point of comparison: B2, cAMP EC50 (assay 1) 0.0534 nM. Against it:
- B1 — 1.6-fold higher, 0.0854 nM
- HSQGTFTSDYSKYLDSRRAQDFVQWLVAGGSSGGSSK-NH2 [g317] — 49-fold higher, 2.63 nM
- B3 — 1.5-fold higher, 0.0814 nM

Reference: patent US20190185537A1 (AstraZeneca / MedImmune, published 2019)
